Experiments:
Test in all cases: cell-based or functional assay
[1] = target: CenNLS^GFP: Centauri fragment of superfolder GFP, HA tag, triple SV40 NLS
[2] = target: CenNLS^NLuc: Centauri fragment of NanoLuc, HA tag, triple SV40 NLS
[3] = target: CenNup214^NLuc: Centauri fragment of NanoLuc, HA tag, full-length Nup214 (UniProt P35658)
Sequence of UniProt P35658 (P35658 whole entry, the tested form may be a part): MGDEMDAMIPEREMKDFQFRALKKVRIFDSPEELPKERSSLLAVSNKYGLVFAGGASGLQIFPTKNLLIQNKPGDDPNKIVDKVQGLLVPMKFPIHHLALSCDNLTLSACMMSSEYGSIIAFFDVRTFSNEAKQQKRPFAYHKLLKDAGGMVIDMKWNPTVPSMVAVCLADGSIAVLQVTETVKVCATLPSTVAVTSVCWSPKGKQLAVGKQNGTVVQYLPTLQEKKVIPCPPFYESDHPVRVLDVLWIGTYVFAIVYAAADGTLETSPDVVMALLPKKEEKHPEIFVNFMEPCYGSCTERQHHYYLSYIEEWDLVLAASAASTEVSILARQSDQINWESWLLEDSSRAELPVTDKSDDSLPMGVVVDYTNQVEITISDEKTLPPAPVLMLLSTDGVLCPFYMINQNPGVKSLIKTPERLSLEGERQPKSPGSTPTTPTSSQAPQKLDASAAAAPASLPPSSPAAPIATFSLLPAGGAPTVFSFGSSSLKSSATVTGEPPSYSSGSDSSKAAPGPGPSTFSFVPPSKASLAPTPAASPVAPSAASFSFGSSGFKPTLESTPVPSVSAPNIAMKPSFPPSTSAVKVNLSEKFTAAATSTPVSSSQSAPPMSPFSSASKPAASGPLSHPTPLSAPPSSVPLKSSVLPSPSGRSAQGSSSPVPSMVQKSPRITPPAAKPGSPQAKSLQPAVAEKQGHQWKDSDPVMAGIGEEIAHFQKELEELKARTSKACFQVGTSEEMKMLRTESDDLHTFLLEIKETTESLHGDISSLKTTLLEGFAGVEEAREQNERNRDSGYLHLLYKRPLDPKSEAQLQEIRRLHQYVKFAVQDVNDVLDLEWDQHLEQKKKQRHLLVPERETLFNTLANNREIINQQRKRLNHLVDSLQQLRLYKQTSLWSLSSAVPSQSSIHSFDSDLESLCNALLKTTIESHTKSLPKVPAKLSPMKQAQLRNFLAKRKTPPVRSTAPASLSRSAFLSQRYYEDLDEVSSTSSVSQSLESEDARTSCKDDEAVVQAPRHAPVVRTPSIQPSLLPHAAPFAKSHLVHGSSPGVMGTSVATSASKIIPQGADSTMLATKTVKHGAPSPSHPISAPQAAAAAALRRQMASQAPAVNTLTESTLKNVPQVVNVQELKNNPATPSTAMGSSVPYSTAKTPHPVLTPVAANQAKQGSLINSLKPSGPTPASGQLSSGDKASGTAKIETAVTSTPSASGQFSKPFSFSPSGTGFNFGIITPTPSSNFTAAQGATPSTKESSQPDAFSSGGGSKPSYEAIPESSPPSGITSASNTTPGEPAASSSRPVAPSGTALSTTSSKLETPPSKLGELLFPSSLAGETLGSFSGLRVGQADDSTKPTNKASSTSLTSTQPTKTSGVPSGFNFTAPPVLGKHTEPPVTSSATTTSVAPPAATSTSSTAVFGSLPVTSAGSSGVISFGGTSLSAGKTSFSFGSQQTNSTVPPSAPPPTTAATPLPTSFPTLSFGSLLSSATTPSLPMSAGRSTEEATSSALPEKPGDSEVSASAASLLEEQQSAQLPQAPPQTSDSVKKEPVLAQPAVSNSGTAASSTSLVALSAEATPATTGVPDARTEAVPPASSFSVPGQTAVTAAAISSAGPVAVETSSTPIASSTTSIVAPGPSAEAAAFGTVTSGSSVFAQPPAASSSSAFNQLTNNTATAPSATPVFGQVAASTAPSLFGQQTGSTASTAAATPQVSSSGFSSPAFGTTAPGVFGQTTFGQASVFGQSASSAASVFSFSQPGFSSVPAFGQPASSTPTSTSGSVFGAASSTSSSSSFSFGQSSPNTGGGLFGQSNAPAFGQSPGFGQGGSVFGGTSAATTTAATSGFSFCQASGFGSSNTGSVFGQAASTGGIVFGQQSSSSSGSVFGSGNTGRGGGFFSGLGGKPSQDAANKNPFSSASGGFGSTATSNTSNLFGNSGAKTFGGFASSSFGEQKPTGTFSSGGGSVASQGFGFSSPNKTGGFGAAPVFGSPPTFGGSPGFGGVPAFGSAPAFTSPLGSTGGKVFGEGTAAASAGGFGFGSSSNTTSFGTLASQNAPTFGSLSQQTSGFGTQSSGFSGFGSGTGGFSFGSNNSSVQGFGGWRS

HIV-1 LAI integrase (IN) with α^GFP fused at its C-terminus, as carried by αHIV^GFP (from UniProt P03367 1160-1447)
fold increase in fluorescence (flow cytometry, 48 hpi) [1]: 5 to 10 fold

HIV-1 LAI integrase (IN) with α^NLuc fused at its C-terminus, as carried by αHIV^NLuc (from UniProt P03367 1160-1447)
fold increase in emitted luminescence signal (plate luminometry) [2]: 5 to 200 fold
fold increase in NLuc signal [3]: 10 fold

HIV-1 LAI integrase D116I mutant with α^NLuc fused at its C-terminus, as carried by αHIV-D116I^NLuc (from UniProt P03367 1160-1447)
fold increase in NLuc compared to infection in the presence of Nevirapine [2]: 10 fold

IRF3α-3xFLAG: IRF3 fused to the α fragment of NanoLuc and a 3xFLAG tag (from UniProt Q14653 1-427)
αCentauri complementation, luminescence fold above uninfected controls (SeV infection, 6 h) [2]: 3 to 6 fold
